Our source for the SPOT signal as a fraction of Bim BH3's signal on the same receptor and array values is paper PMC4072508, “Genome-Wide Prediction and Validation of Peptides That Bind Human Prosurvival Bcl-2 Proteins” (PLoS Computational Biology, 2014).

Sequences and labels used below:
T1: Mcl-1, Q07820
T1 chain: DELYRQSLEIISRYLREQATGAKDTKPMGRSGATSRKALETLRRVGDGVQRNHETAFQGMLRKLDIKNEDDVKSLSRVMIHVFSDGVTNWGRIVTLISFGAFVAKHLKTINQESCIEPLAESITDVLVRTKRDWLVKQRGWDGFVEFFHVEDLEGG

T2: Bfl-1, Q16548
T2 chain: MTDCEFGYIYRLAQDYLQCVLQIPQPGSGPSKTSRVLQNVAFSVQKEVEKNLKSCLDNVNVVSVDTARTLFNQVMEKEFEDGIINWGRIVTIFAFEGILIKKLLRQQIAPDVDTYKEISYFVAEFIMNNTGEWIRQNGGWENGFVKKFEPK

B1: SORT1 (peptide)
chain: VFDDLRGSVSLSWVGDSTGVILVLTT
B2: FAM115A (peptide)
chain: RGAMLSLATGLAHSLSDLSLLVPEIE
B3: GLOD4 (peptide)
chain: VILADPDGHEICFVGDEAFRELSKMD
B4: CPS1 (peptide)
chain: HGTSSRIGSSMKSVGEVMAIGRTFEE
B5: SEH1L (peptide)
chain: RVSWNITGTVDASSGDDGCVRLWKAN
B6: CAND1 (peptide)
chain: ERAISCMGQIICNLGDNLGSDLPNTL
B7: PRPSAP1 (peptide)
chain: ITVVGDVGGRIAIILDDIIDDVESFV
B8: ITPR3 (peptide)
chain: KKCQDMIMTEDTNAGDDVVVFYNDKA
B9: DCAF8 (peptide)
chain: TLHFNQRGTWDASGSDDLKVVVWDWV
B10: PKD2L1 (peptide)
chain: NKTMTQLSSTLARCLKDILGFAVMFF
B11: SORT1 (peptide)
chain: VFDDLRGSVSDSWVGDSTGVILVLTT
B12: SPAG9 (peptide)
chain: HPRKESQVRQLAWVGDGVWVSIRLDS
B13: CAND1 (peptide)
chain: ERAISCMGQIDCNLGDNLGSDLPNTL
B14: PRKD3 (peptide)
chain: IQENVDISTVYQIFLDEVLGSGQFGI
B15: BCAR1 (peptide)
chain: SKFVILSAHKDVFIGDTLSRQAKAAD
B16: KIF13A (peptide)
chain: NKSLTTLGLVISSLADQAAGKGKSKF
B17: MSH3 (peptide)
chain: AVLCVECGYKYRFFLEDAEIAARELN
B18: CAD (peptide)
chain: LRVSTKIGSCDKSVGEVMGIGRSFEE
B19: TIGD7 (peptide)
chain: VLSRIEAGRSLKSVLDEFGISKSTFY
B20: DDX7 (peptide)
chain: GLFSATSGVDLKYVADTFGQEVRPVS
B21: TBL1XR1 (peptide)
chain: AIKWDPTGNLLASCLDDMTLKIWSMK
B22: BAT3 (peptide)
chain: QRLINLVGESLRLLLNTFVALSDLRC
B23: CAD (peptide)
chain: LRVSTKIGSCMKSVLEVMGIGRSFEE
B24: ADCY10 (peptide)
chain: EKVLIFGGDILKFALDALLALWRVER
B25: DSN1 (peptide)
chain: RAKASSLSEEDKHFADGLETDGTLQK
B26: GBP6 (peptide)
chain: NDDTPWIARTLDNLLDELTAILSAPA
B27: OBSCN (peptide)
chain: RCELQICGLADADAGEYLCVCGQERT
B28: VPS13C (peptide)
chain: SRQPRDFGDSLARGGKGFLRGVVGGV
B29: IQGAP2 (peptide)
chain: ISSLDLLPYGDRYIAKVLKNSIHEKF
B30: FAM115A (peptide)
chain: RGAMLSLATGDAHSGSDLSLLVPEIE
B31: CASP3 (peptide)
chain: SWFIQSLCAMLKQYLDKLEFMHILTR
B32: OTUD5 (peptide)
chain: KQMKEDGACLDRAVADQVYGDQDMHE
B33: HDAC2 (peptide)
chain: MEMYQPSAVVLQCGADSLSGDRLGCF
B34: FTL (peptide)
chain: THFLDEEVKLIKKMGDHLTNLHRLGG
B35: OTUD5 (peptide)
chain: KQMKEDGACLFRAVLDQVYGDQDMHE
B36: OTUD5 (peptide)
chain: KQMKEDGACLFRAVADQVYGDQDMHE

The first experiment deals with T1, Mcl-1, Q07820. As to the kind of experiment: peptide SPOT array, c-Myc-tagged receptor at 1 uM or 100 nM, anti-c-Myc-Cy3.
B1 displayed an SPOT signal as a fraction of Bim BH3's signal on the same receptor and array of 0.01.
The molecule B2 had an SPOT signal as a fraction of Bim BH3's signal on the same receptor and array of 0.05.
Molecule B3 showed an SPOT signal as a fraction of Bim BH3's signal on the same receptor and array of 0.01.
In the case of B4, the SPOT signal as a fraction of Bim BH3's signal on the same receptor and array amounted to 0.02.
As to B5, the SPOT signal as a fraction of Bim BH3's signal on the same receptor and array was 0.03.
As for B6, the SPOT signal as a fraction of Bim BH3's signal on the same receptor and array worked out at 0.01.
B7 showed an SPOT signal as a fraction of Bim BH3's signal on the same receptor and array of 0.02.
The molecule B8 registered an SPOT signal as a fraction of Bim BH3's signal on the same receptor and array of 0.01.
In turn, B9 had an SPOT signal as a fraction of Bim BH3's signal on the same receptor and array of 0.02.
Molecule B10 registered an SPOT signal as a fraction of Bim BH3's signal on the same receptor and array of 0.12.
Turning to B11, the SPOT signal as a fraction of Bim BH3's signal on the same receptor and array was 0.02.
In turn, B12 yielded an SPOT signal as a fraction of Bim BH3's signal on the same receptor and array of 0.02.
B13 returned an SPOT signal as a fraction of Bim BH3's signal on the same receptor and array of 0.01.
Molecule B14 yielded an SPOT signal as a fraction of Bim BH3's signal on the same receptor and array of 0.05.
Same read-out and setting: the value for B15 was 0.02; that for B16 was 0.18; that for B17 was 0.02.
In turn, B18 displayed an SPOT signal as a fraction of Bim BH3's signal on the same receptor and array of 0.02.
On to B19, for which the SPOT signal as a fraction of Bim BH3's signal on the same receptor and array stood at 0.085.
B20 showed an SPOT signal as a fraction of Bim BH3's signal on the same receptor and array of 0.02.
Turning to B21, the SPOT signal as a fraction of Bim BH3's signal on the same receptor and array was determined as 0.05.
Molecule B22 showed an SPOT signal as a fraction of Bim BH3's signal on the same receptor and array of 0.03.
As to B23, the SPOT signal as a fraction of Bim BH3's signal on the same receptor and array worked out at 0.04.
Turning to B24, the SPOT signal as a fraction of Bim BH3's signal on the same receptor and array was found to be 0.03.
B25 yielded an SPOT signal as a fraction of Bim BH3's signal on the same receptor and array of 0.04.
The molecule B26 showed an SPOT signal as a fraction of Bim BH3's signal on the same receptor and array of 0.04.
Molecule B27 came in with an SPOT signal as a fraction of Bim BH3's signal on the same receptor and array of 0.01.
On the same count and under the same terms, with B28 the figure was 0.53; with B29, 0.34.
For the molecule B30, the SPOT signal as a fraction of Bim BH3's signal on the same receptor and array turned out to be 0.04.

The target in the next experiment is Bcl-xL, Q07817. Described as above.
Sequence of Bcl-xL, Q07817 (Q07817 1-209): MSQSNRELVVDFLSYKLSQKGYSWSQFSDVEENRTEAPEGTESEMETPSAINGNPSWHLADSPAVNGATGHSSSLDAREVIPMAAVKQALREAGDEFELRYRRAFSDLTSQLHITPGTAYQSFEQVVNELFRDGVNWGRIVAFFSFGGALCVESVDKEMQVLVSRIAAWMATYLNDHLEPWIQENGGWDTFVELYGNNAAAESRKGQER
Molecule B1 gave an SPOT signal as a fraction of Bim BH3's signal on the same receptor and array of 0.02.
On the same count and under the same terms, with B2 the figure was 0.06; with B3, 0.02; with B4, 0.02.
Regarding B5, the SPOT signal as a fraction of Bim BH3's signal on the same receptor and array stood at 0.07.
The molecule B6 returned an SPOT signal as a fraction of Bim BH3's signal on the same receptor and array of 0.01.
B7 had an SPOT signal as a fraction of Bim BH3's signal on the same receptor and array of 0.02.
Same read-out and setting: with B8 the figure was 0.02; with B9, 0.02.
B10 showed an SPOT signal as a fraction of Bim BH3's signal on the same receptor and array of 0.19.
Take B11: the SPOT signal as a fraction of Bim BH3's signal on the same receptor and array turned out to be 0.02.
In turn, B12 had an SPOT signal as a fraction of Bim BH3's signal on the same receptor and array of 0.02.
For B13, the SPOT signal as a fraction of Bim BH3's signal on the same receptor and array came to 0.01.
In turn, B31 registered an SPOT signal as a fraction of Bim BH3's signal on the same receptor and array of 0.27.
B14 came in with an SPOT signal as a fraction of Bim BH3's signal on the same receptor and array of 0.08.
Take B15: the SPOT signal as a fraction of Bim BH3's signal on the same receptor and array is 0.01.
As for B16, the SPOT signal as a fraction of Bim BH3's signal on the same receptor and array stood at 0.4.
B17 showed an SPOT signal as a fraction of Bim BH3's signal on the same receptor and array of 0.02.
Turning to B18, the SPOT signal as a fraction of Bim BH3's signal on the same receptor and array came out at 0.02.
The molecule B19 came in with an SPOT signal as a fraction of Bim BH3's signal on the same receptor and array of 0.08.
On the same count and under the same terms, the value for B20 was 0.02.
The molecule B21 came in with an SPOT signal as a fraction of Bim BH3's signal on the same receptor and array of 0.07.
Turning to B22, the SPOT signal as a fraction of Bim BH3's signal on the same receptor and array amounted to 0.08.
B23: the SPOT signal as a fraction of Bim BH3's signal on the same receptor and array is 0.04.
As for B24, the SPOT signal as a fraction of Bim BH3's signal on the same receptor and array stood at 0.04.
On the same count and under the same terms, the value for B25 was 0.06; that for B26 was 0.05; that for B27 was 0.01.
B28 displayed an SPOT signal as a fraction of Bim BH3's signal on the same receptor and array of 1.
The same measure, in the same setting: with B29 the figure was 0.64; with B30, 0.06.

Another experiment has as its target T2, Bfl-1, Q16548. The description is as above.
As to B32, the SPOT signal as a fraction of Bim BH3's signal on the same receptor and array amounted to 0.0533.
Molecule B31 gave an SPOT signal as a fraction of Bim BH3's signal on the same receptor and array of 0.21.
On to B14, for which the SPOT signal as a fraction of Bim BH3's signal on the same receptor and array was 0.05.
B33 returned an SPOT signal as a fraction of Bim BH3's signal on the same receptor and array of 0.03.
In turn, B34 yielded an SPOT signal as a fraction of Bim BH3's signal on the same receptor and array of 0.04.
As for B35, the SPOT signal as a fraction of Bim BH3's signal on the same receptor and array worked out at 0.0567.
Still for that read-out and setting: with B25 the figure was 0.03; with B36, 0.0533; with B26, 0.04.
Molecule B29 gave an SPOT signal as a fraction of Bim BH3's signal on the same receptor and array of 0.51.
